Molecular target: Truncated TGF-β type III receptor encoded by partial rat cDNA clone R3-OF (rat) (UniProt P26342)
Experiment: total 125I-TGF-β binding per glass slide of COS cells transfected with the cDNA clone (calculated, data not shown)

Truncated TGF-β type III receptor encoded by partial rat cDNA clone R3-OF (rat), sequence (P26342 24-818 L164V limits assumed): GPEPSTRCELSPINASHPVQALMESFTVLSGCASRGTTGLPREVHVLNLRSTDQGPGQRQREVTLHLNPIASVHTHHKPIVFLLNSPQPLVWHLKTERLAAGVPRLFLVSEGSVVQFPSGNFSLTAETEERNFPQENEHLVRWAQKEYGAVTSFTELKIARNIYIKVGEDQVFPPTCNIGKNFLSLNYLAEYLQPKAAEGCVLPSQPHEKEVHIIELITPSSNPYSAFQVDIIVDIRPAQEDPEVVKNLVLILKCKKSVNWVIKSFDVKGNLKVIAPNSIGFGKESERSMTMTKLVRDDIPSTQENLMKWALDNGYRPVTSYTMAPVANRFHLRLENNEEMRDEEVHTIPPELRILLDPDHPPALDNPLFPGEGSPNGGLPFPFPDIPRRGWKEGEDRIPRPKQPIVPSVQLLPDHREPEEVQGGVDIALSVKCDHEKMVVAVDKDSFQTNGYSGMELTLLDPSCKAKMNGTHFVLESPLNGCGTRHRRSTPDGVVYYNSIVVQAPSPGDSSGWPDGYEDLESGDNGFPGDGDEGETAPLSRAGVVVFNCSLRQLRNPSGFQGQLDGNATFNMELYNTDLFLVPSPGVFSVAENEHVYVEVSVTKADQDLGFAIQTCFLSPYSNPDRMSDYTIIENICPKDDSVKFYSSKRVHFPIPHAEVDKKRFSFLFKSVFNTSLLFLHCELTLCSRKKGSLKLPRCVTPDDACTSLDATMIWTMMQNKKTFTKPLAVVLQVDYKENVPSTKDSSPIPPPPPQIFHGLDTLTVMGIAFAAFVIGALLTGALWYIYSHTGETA
Recombinant human TGF-β1, sequence (P01137 279-390 limits assumed): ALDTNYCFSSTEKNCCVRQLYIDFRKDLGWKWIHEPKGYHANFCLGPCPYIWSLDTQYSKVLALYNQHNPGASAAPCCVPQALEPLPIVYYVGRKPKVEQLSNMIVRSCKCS

In the case of “Recombinant human TGF-β1 (from UniProt P01137 279-390) (ligand)”, the fold total 125I-TGF-β binding over mock transfectants is reported as 2 fold.

From US20080234216A1
